Data from IntAct's records for PubMed 23542155.

B1: Ligand-dependent nuclear receptor-interacting factor 1 (Homo sapiens), Q5T3J3 (parent)
chain: MSNNLRRVFLKPAEENSGNASRCVSGCMYQVVQTIGSDGKNLLQLLPIPKSSGNLIPLVQSSVMSDALKGNTGKPVQVTFQTQISSSSTSASVQLPIFQPASSSNYFLTRTVDTSEKGRVTSVGTGNFSSSVSKVQSHGVKIDGLTMQTFAVPPSTQKDSSFIVVNTQSLPVTVKSPVLPSGHHLQIPAHAEVKSVPASSLPPSVQQKILATATTSTSGMVEASQMPTVIYVSPVNTVKNVVTKNFQNIYPKPVTEIAKPVILNTTQIPKNVATETQLKGGQHSQAAPVKWIFQDNLQPFTPSLVPVKSSNNVASKILKTFVDRKNLGDNTINMPPLSTIDPSGTRSKNMPIKDNALVMFNGKVYLLAKKGTDVLPSQIDQQNSVSPDTPVRKDTLQTVSSSPVTEISREVVNIVLAKSKSSQMETKSLSNTQLASMANLRAEKNKVEKPSPSTTNPHMNQSSNYLKQSKTLFTNPIFPVGFSTGHNAPRKVTAVIYARKGSVLQSIEKISSSVDATTVTSQQCVFRDQEPKIHNEMASTSDKGAQGRNDKKDSQGRSNKALHLKSDAEFKKIFGLTKDLRVCLTRIPDHLTSGEGFDSFSSLVKSGTYKETEFMVKEGERKQQNFDKKRKAKTNKKMDHIKKRKTENAYNAIINGEANVTGSQLLSSILPTSDVSQHNILTSHSKTRQEKRTEMEYYTHEKQEKGTLNSNAAYEQSHFFNKNYTEDIFPVTPPELEETIRDEKIRRLKQVLREKEAALEEMRKKMHQK

Variants of: B1
Details: with cbx5_human CBX5, P45973
cbx5_human CBX5, P45973, sequence (P45973 whole entry): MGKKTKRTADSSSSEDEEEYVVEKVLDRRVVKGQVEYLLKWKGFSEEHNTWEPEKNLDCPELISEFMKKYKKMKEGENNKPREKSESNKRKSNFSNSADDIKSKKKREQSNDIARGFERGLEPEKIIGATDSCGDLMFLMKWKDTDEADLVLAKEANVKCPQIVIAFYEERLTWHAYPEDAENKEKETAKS

effect of a mutation on the interaction | Variant
disrupting interaction strength | V582D;L584E
